According to the supplement of paper PMC10567573:

B1: GOLPH3 (parent)
chain: FAPLLDEQYDLATKRVRQLLDLDP

Variants of: B1
Assay: protein stability index of a GFP-peptide fusion (GPS, HEK-293T) (PSI 1-6); higher = more stable
Conditions: c terminus: a fixed tail appended
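Note: lentivirally expressed fusions sorted by FACS into six bins by GFP to DsRed ratio, PSI derived from sequencing read proportions per bin multiplied by bin number.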

In order of rising protein stability index:
1. FAPLRDEQYDLATKRVRQLLDLDP  1.18
2. FAPLLDEQVDLATKRVRQLLDLDP  1.24
3. FAPLLDEQYVLATKRVRQLLDLDP  1.27
4. FAPLLDEWYDLATKRVRQLLDLDP  1.32
5. FAPLLDERYDLATKRVRQLLDLDP  1.39
6. FAPLLQEQYDLATKRVRQLLDLDP  1.42
7. FAPRLDEQYDLATKRVRQLLDLDP  1.43
8. FAPLLGEQYDLATKRVRQLLDLDP  1.45
9. FAPLLIEQYDLATKRVRQLLDLDP  1.46
10. FAPLLDEQYQLATKRVRQLLDLDP  1.46
11. FAPLLHEQYDLATKRVRQLLDLDP  1.48
12. FAPLLDYQYDLATKRVRQLLDLDP  1.48
13. FAPLLFEQYDLATKRVRQLLDLDP  1.49
14. FAPLLDAQYDLATKRVRQLLDLDP  1.49
15. FAPLLDEFYDLATKRVRQLLDLDP  1.5
16. FAFLLDEQYDLATKRVRQLLDLDP  1.52
17. FAPLLNEQYDLATKRVRQLLDLDP  1.54
18. FAPLLDLQYDLATKRVRQLLDLDP  1.55
19. FAPLLDEQYTLATKRVRQLLDLDP  1.56
20. FAPLLDEQYHLATKRVRQLLDLDP  1.58
21. FAPLLDEQYNLATKRVRQLLDLDP  1.59
22. FALLLDEQYDLATKRVRQLLDLDP  1.6
23. FAPLLDEQYYLATKRVRQLLDLDP  1.63
24. FAPLLDIQYDLATKRVRQLLDLDP  1.65
25. FAPCLDEQYDLATKRVRQLLDLDP  1.67
26. FAILLDEQYDLATKRVRQLLDLDP  1.68
27. FAPLLDEQYLLATKRVRQLLDLDP  1.72
28. FAPTLDEQYDLATKRVRQLLDLDP  1.72
29. FAPLLDEPYDLATKRVRQLLDLDP  1.74
30. FAPLLVEQYDLATKRVRQLLDLDP  1.75
31. FIPLLDEQYDLATKRVRQLLDLDP  1.75
32. FAPLLDEKYDLATKRVRQLLDLDP  1.75
33. FAPSLDEQYDLATKRVRQLLDLDP  1.75
34. FAPLLTEQYDLATKRVRQLLDLDP  1.76
35. FAPLLDHQYDLATKRVRQLLDLDP  1.76
36. FAPMLDEQYDLATKRVRQLLDLDP  1.76
37. FAPLIDEQYDLATKRVRQLLDLDP  1.78
38. FAMLLDEQYDLATKRVRQLLDLDP  1.78
39. FAPALDEQYDLATKRVRQLLDLDP  1.81
40. FAPLCDEQYDLATKRVRQLLDLDP  1.82
41. FAPLLLEQYDLATKRVRQLLDLDP  1.83
42. FAPLLDENYDLATKRVRQLLDLDP  1.84
43. FCPLLDEQYDLATKRVRQLLDLDP  1.85
44. FAPLSDEQYDLATKRVRQLLDLDP  1.85
45. FAPLLDTQYDLATKRVRQLLDLDP  1.86
46. FAPLLDGQYDLATKRVRQLLDLDP  1.86
47. FAPLLDKQYDLATKRVRQLLDLDP  1.87
48. FARLLDEQYDLATKRVRQLLDLDP  1.87
49. FAPLLWEQYDLATKRVRQLLDLDP  1.88
50. FAPLLDEQYILATKRVRQLLDLDP  1.88
51. FAPLLDEMYDLATKRVRQLLDLDP  1.88
52. FAPLLDVQYDLATKRVRQLLDLDP  1.89
53. FAPLLDMQYDLATKRVRQLLDLDP  1.9
54. FAPLLDFQYDLATKRVRQLLDLDP  1.91
55. FAPLLDNQYDLATKRVRQLLDLDP  1.91
56. FWPLLDEQYDLATKRVRQLLDLDP  1.92
57. FAPLLDEQYDFATKRVRQLLDLDP  1.94
58. FAPLTDEQYDLATKRVRQLLDLDP  1.95
59. FAPLLDELYDLATKRVRQLLDLDP  1.95
60. FAPLLDEQYKLATKRVRQLLDLDP  1.98
61. FAPLLDCQYDLATKRVRQLLDLDP  1.98
62. FAPFLDEQYDLATKRVRQLLDLDP  2.01
63. FAPLLDDQYDLATKRVRQLLDLDP  2.02
64. FAPLLYEQYDLATKRVRQLLDLDP  2.03
65. FAPLLDEQYSLATKRVRQLLDLDP  2.03
66. FFPLLDEQYDLATKRVRQLLDLDP  2.03
67. FMPLLDEQYDLATKRVRQLLDLDP  2.03
68. FAPLLDEHYDLATKRVRQLLDLDP  2.04
69. FAQLLDEQYDLATKRVRQLLDLDP  2.05
70. FAPLLDEQWDLATKRVRQLLDLDP  2.06
71. FAPLWDEQYDLATKRVRQLLDLDP  2.07
72. FAPLLDEGYDLATKRVRQLLDLDP  2.08
73. FAPLLDECYDLATKRVRQLLDLDP  2.1
74. FVPLLDEQYDLATKRVRQLLDLDP  2.11
75. FAPLLDSQYDLATKRVRQLLDLDP  2.12
76. FAPLLDPQYDLATKRVRQLLDLDP  2.12
77. FAPQLDEQYDLATKRVRQLLDLDP  2.12
78. FAPLLDEQYGLATKRVRQLLDLDP  2.15
79. FAPLLDEQLDLATKRVRQLLDLDP  2.15
80. FAWLLDEQYDLATKRVRQLLDLDP  2.16
81. FLPLLDEQYDLATKRVRQLLDLDP  2.2
82. FAPLLDEQRDLATKRVRQLLDLDP  2.2
83. FAPLVDEQYDLATKRVRQLLDLDP  2.21
84. FAPLPDEQYDLATKRVRQLLDLDP  2.21
85. FAPLLEEQYDLATKRVRQLLDLDP  2.22
86. FAPLLDEQYRLATKRVRQLLDLDP  2.23
87. FAPLLDEQYMLATKRVRQLLDLDP  2.24
88. FAPLGDEQYDLATKRVRQLLDLDP  2.24
89. FAPLLDESYDLATKRVRQLLDLDP  2.24
90. FAPLLDEQGDLATKRVRQLLDLDP  2.24
91. FAPLLCEQYDLATKRVRQLLDLDP  2.25
92. FAPLLMEQYDLATKRVRQLLDLDP  2.25
93. FAPLLSEQYDLATKRVRQLLDLDP  2.26
94. FAPLLDEQYDCATKRVRQLLDLDP  2.26
95. FAPLLDEQIDLATKRVRQLLDLDP  2.26
96. FAPGLDEQYDLATKRVRQLLDLDP  2.27
97. FAYLLDEQYDLATKRVRQLLDLDP  2.28
98. FAPWLDEQYDLATKRVRQLLDLDP  2.28
99. FAPLLDEAYDLATKRVRQLLDLDP  2.29
100. FAPHLDEQYDLATKRVRQLLDLDP  2.31
101. FAPLLDEYYDLATKRVRQLLDLDP  2.33
102. FAPILDEQYDLATKRVRQLLDLDP  2.33
103. FAPLADEQYDLATKRVRQLLDLDP  2.34
104. FASLLDEQYDLATKRVRQLLDLDP  2.34
105. FAALLDEQYDLATKRVRQLLDLDP  2.34
106. FAPKLDEQYDLATKRVRQLLDLDP  2.34
107. FAPPLDEQYDLATKRVRQLLDLDP  2.35
108. FAPLLDEQYELATKRVRQLLDLDP  2.36
109. FAPLLAEQYDLATKRVRQLLDLDP  2.38
110. FAPLMDEQYDLATKRVRQLLDLDP  2.38
111. FAVLLDEQYDLATKRVRQLLDLDP  2.38
112. YAPLLDEQYDLATKRVRQLLDLDP  2.39
113. FAPLKDEQYDLATKRVRQLLDLDP  2.39
114. FAPLLKEQYDLATKRVRQLLDLDP  2.4
115. FAPLLDEQYPLATKRVRQLLDLDP  2.4
116. FAPLLDEQKDLATKRVRQLLDLDP  2.4
117. FAPLHDEQYDLATKRVRQLLDLDP  2.42
118. FYPLLDEQYDLATKRVRQLLDLDP  2.43
119. FAKLLDEQYDLATKRVRQLLDLDP  2.44
120. FACLLDEQYDLATKRVRQLLDLDP  2.44
121. FAPLYDEQYDLATKRVRQLLDLDP  2.45
122. FAPLQDEQYDLATKRVRQLLDLDP  2.45
123. FAPLLDEQTDLATKRVRQLLDLDP  2.45
124. WAPLLDEQYDLATKRVRQLLDLDP  2.46
125. FAPLLDEQMDLATKRVRQLLDLDP  2.46
126. FHPLLDEQYDLATKRVRQLLDLDP  2.48
127. FAPLLDEQHDLATKRVRQLLDLDP  2.49
128. CAPLLDEQYDLATKRVRQLLDLDP  2.5
129. FAPLLDEQYCLATKRVRQLLDLDP  2.54
130. FAPLLDWQYDLATKRVRQLLDLDP  2.56
131. FAPLLDEQNDLATKRVRQLLDLDP  2.57
132. FAGLLDEQYDLATKRVRQLLDLDP  2.59
133. FAPLLDEQPDLATKRVRQLLDLDP  2.59
134. FAPLFDEQYDLATKRVRQLLDLDP  2.6
135. FAPLLDETYDLATKRVRQLLDLDP  2.64
136. FAPLLDEEYDLATKRVRQLLDLDP  2.64
137. FAPLLDEQQDLATKRVRQLLDLDP  2.64
138. FAPYLDEQYDLATKRVRQLLDLDP  2.65
139. FAPLLDQQYDLATKRVRQLLDLDP  2.66
140. FAPLLDEQYFLATKRVRQLLDLDP  2.69
141. FTPLLDEQYDLATKRVRQLLDLDP  2.71
142. FAPLLDEQFDLATKRVRQLLDLDP  2.75
143. FAPLLDRQYDLATKRVRQLLDLDP  2.79
144. FADLLDEQYDLATKRVRQLLDLDP  2.79
145. FAPELDEQYDLATKRVRQLLDLDP  2.79
146. FAPLLPEQYDLATKRVRQLLDLDP  2.81
147. FATLLDEQYDLATKRVRQLLDLDP  2.88
148. FAPLLDEQCDLATKRVRQLLDLDP  2.9
149. FAPLLDEQADLATKRVRQLLDLDP  2.9
150. FAPLLDEDYDLATKRVRQLLDLDP  2.96
151. FAPLLDEQSDLATKRVRQLLDLDP  2.96
152. FAPLNDEQYDLATKRVRQLLDLDP  2.97
153. FAPLLDEQDDLATKRVRQLLDLDP  2.98
154. FNPLLDEQYDLATKRVRQLLDLDP  3.01
155. VAPLLDEQYDLATKRVRQLLDLDP  3.06
156. FAHLLDEQYDLATKRVRQLLDLDP  3.07
157. FAPLLDEQYDDATKRVRQLLDLDP  3.09
158. FAPLLDEQYWLATKRVRQLLDLDP  3.11
159. IAPLLDEQYDLATKRVRQLLDLDP  3.11
160. FEPLLDEQYDLATKRVRQLLDLDP  3.13
161. FKPLLDEQYDLATKRVRQLLDLDP  3.14
162. FAPVLDEQYDLATKRVRQLLDLDP  3.17
163. FANLLDEQYDLATKRVRQLLDLDP  3.18
164. FAELLDEQYDLATKRVRQLLDLDP  3.18
165. FGPLLDEQYDLATKRVRQLLDLDP  3.19
166. FAPNLDEQYDLATKRVRQLLDLDP  3.2
167. FAPLLDEQYDAATKRVRQLLDLDP  3.3
168. FQPLLDEQYDLATKRVRQLLDLDP  3.37
169. FAPDLDEQYDLATKRVRQLLDLDP  3.39
170. FPPLLDEQYDLATKRVRQLLDLDP  3.45
171. FSPLLDEQYDLATKRVRQLLDLDP  3.46
172. FAPLLDEQYDEATKRVRQLLDLDP  3.48
173. FAPLLDEQEDLATKRVRQLLDLDP  3.5
174. MAPLLDEQYDLATKRVRQLLDLDP  3.58
175. KAPLLDEQYDLATKRVRQLLDLDP  3.61
176. LAPLLDEQYDLATKRVRQLLDLDP  3.67
177. FAPLEDEQYDLATKRVRQLLDLDP  3.7
178. FDPLLDEQYDLATKRVRQLLDLDP  3.71
179. FAPLDDEQYDLATKRVRQLLDLDP  3.74
180. NAPLLDEQYDLATKRVRQLLDLDP  3.86
181. HAPLLDEQYDLATKRVRQLLDLDP  4
182. QAPLLDEQYDLATKRVRQLLDLDP  4.03
183. TAPLLDEQYDLATKRVRQLLDLDP  4.11
184. DAPLLDEQYDLATKRVRQLLDLDP  4.39
185. SAPLLDEQYDLATKRVRQLLDLDP  4.39
186. GAPLLDEQYDLATKRVRQLLDLDP  4.41
187. PAPLLDEQYDLATKRVRQLLDLDP  4.59
188. EAPLLDEQYDLATKRVRQLLDLDP  4.59
